How the values were obtained:
mouse PD-L1-Fc [1] = target: T1, mouse PD-L1-Fc (mouse, UniProt Q9EP73); test: ELISA
mouse PD-L1-Fc [2] = target: T1, mouse PD-L1-Fc; test: ELISA; remark: listed apart in the source

T1 sequence (Q9EP73 19-239): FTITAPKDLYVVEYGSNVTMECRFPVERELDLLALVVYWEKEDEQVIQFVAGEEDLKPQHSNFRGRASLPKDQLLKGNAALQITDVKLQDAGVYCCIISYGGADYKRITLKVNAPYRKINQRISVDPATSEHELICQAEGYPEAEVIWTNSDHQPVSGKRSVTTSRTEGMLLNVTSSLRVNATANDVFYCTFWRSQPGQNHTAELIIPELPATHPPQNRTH

EC50 (mouse PD-L1-Fc [1]): 0.516 nM
IC50 (mouse PD-L1-Fc [2]): 6.78 nM
B1: PD-L1 nanobody Nb16 (VHH linked to an Fc fragment) (VHH)
VHH: QVQLQESGGGSVQAGGSLRLSCAASGYTDRNYWMGWFRQAPGKEREGVAALYTRTGSTYYADSVKGRFTISHDNAKNTLYLQMNSLKPEDTAVYYCAADSNAYGLAPLHHYWGQGTQVTVSS
